Source: patent publication US20210238260
Residue numbers refer to the chain shown, from its start. Names may count otherwise.

Chain of Factor X, P00742 (P00742 whole entry, looked up): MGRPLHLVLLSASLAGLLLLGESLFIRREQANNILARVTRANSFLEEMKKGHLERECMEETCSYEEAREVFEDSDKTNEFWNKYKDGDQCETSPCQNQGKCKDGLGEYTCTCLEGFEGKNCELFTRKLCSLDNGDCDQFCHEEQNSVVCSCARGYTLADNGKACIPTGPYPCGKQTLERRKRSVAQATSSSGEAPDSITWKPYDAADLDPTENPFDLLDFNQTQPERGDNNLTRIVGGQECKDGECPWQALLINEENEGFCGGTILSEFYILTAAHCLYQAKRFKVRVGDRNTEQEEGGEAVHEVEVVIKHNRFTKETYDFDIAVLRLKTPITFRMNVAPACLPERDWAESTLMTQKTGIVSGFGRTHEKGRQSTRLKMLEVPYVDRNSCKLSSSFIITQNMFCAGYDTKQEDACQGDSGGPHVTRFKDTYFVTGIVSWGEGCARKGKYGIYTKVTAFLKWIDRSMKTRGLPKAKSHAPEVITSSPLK
Chain of Factor X (FX), P00742 (P00742 whole entry, looked up): as above

B1: FIXa-Y155F/K247N/N249S/R318Y/R403E/E410N (protein)
chain 1: YNSGKLEEFVQGNLERECMEEKCSFEEAREVFENTERTTEFWKQYVDGDQCESNPCLNGGSCKDDINSYECWCPFGFEGKNCELDVTCNIKNGRCEQFCKNSADNKVVCSCTEGYRLAENQKSCEPAVPFPCGRVSVSQTSKLTR
chain 2: VVGGEDAKPGQFPWQVVLNGKVDAFCGGSIVNEKWIVTAAHCVETGVKITVVAGEHNIEETEHTEQNRSVIRIIPHHNYNAAINKYNHDIALLELDEPLVLNSYVTPICIADKEYTNIFLKFGSGYVSGWGRVFHKGYSALVLQYLRVPLVDRATCLRSTKFTIYNNMFCAGFHEGGRDSCQGDSGGPHVTEVEGTSFLTGIISWGEECAMKGKYGIYTKVSEYVNWIKNKTKLT
In the case of B1, the “% of WT kcat/KM” value (Factor X, P00742) is reported as 22%, the kcat (Factor X, P00742) is reported as 1.2 s⁻¹ and the kcat/KM (Factor X, P00742) is reported as 1e+07 M⁻¹ s⁻¹.

B2: FIXa variant R318Y/R403E/E410N (protein)
chain 1: B1 chain 1
chain 2: B1 chain 2 with N67K, S69N
In the case of B2, the “% of WT kcat/KM” value (Factor X (FX), P00742) is reported as 54% and the kcat/KM (Factor X (FX), P00742) is reported as 2.5e+07 M⁻¹ s⁻¹.

B3: FIXa variant A103N/N105S/R318Y/R338E/R403E/E410N (protein)
chain 1: B1 chain 1 with A103N, N105S
chain 2: B1 chain 2 with N67K, S69N, R158E
B3 was tested, and the “% of WT kcat/KM” value (Factor X (FX), P00742) was 318% and the kcat/KM (Factor X (FX), P00742) was 1.5e+08 M⁻¹ s⁻¹.

B4: FIXa variant K228N/R318Y/E410N (protein)
chain 1: B1 chain 1
chain 2: B1 chain 2 with K48N, N67K, S69N, E223R
In the case of B4, the “% of WT kcat/KM” value (Factor X (FX), P00742) is reported as 264% and the kcat/KM (Factor X (FX), P00742) is reported as 1.2e+08 M⁻¹ s⁻¹.

B5: FIXa variant R318Y/R338E/R403E/E410N (protein)
chain 1: B1 chain 1
chain 2: B1 chain 2 with N67K, S69N, R158E
With B5 the “% of WT kcat/KM” value (Factor X (FX), P00742) was 320% and the kcat/KM (Factor X (FX), P00742) was 1.5e+08 M⁻¹ s⁻¹.

B6: FIXa variant D203N/F205T/R318Y (protein)
chain 1: B1 chain 1
chain 2: B1 chain 2 with D23N, F25T, N67K, S69N, E223R, N230E
B6 was tested, and the “% of WT kcat/KM” value (Factor X (FX), P00742) was 44% and the kcat/KM (Factor X (FX), P00742) was 2e+07 M⁻¹ s⁻¹.

B7: FIXa variant Y155F/R318Y/R403E/E410N (protein)
chain 1: B1 chain 1
chain 2: B1 chain 2 with N67K, S69N
With B7 the “% of WT kcat/KM” value (Factor X (FX), P00742) was 78% and the kcat/KM (Factor X (FX), P00742) was 3.6e+07 M⁻¹ s⁻¹.

B8: FIXa variant D203N/F205T/E410N (protein)
chain 1: B1 chain 1
chain 2: B1 chain 2 with D23N, F25T, N67K, S69N, Y138R, E223R
B8 was tested, and the “% of WT kcat/KM” value (Factor X (FX), P00742) was 91% and the kcat/KM (Factor X (FX), P00742) was 4.2e+07 M⁻¹ s⁻¹.

B9: FIXa-Y155F/R318Y/R338E/T343R/R403E (protein)
chain 1: B1 chain 1
chain 2: B1 chain 2 with N67K, S69N, R158E, T163R, N230E
B9 was tested, and the “% of WT kcat/KM” value (Factor X, P00742) was 563%, the kcat (Factor X, P00742) was 8.2 s⁻¹ and the kcat/KM (Factor X, P00742) was 2.6e+08 M⁻¹ s⁻¹.

B10: FIXa-Y155F/K247N/N249S/R338E/R403E/E410N (protein)
chain 1: B1 chain 1
chain 2: B1 chain 2 with Y138R, R158E
With B10 the “% of WT kcat/KM” value (Factor X, P00742) was 229%, the kcat (Factor X, P00742) was 5 s⁻¹ and the kcat/KM (Factor X, P00742) was 1.1e+08 M⁻¹ s⁻¹.

B11: FIXa variant K228N/R338E/R403E (protein)
chain 1: B1 chain 1
chain 2: B1 chain 2 with K48N, N67K, S69N, Y138R, R158E, N230E
B11 was tested, and the “% of WT kcat/KM” value (Factor X (FX), P00742) was 105% and the kcat/KM (Factor X (FX), P00742) was 4.8e+07 M⁻¹ s⁻¹.

B12: FIXa variant D104N/K106S/R318Y/R338E/R403E/E410N (protein)
chain 1: B1 chain 1 with D104N, K106S
chain 2: B1 chain 2 with N67K, S69N, R158E
For B12, the “% of WT kcat/KM” value (Factor X (FX), P00742) was 366% and the kcat/KM (Factor X (FX), P00742) was 1.7e+08 M⁻¹ s⁻¹.

B13: FIXa variant Y155F/R318Y/R338E/E410N (protein)
chain 1: B1 chain 1
chain 2: B1 chain 2 with N67K, S69N, R158E, E223R
With B13 the “% of WT kcat/KM” value (Factor X (FX), P00742) was 810% and the kcat/KM (Factor X (FX), P00742) was 3.7e+08 M⁻¹ s⁻¹.

B14: FIXa-K247N/N249S/R338E/R403E/E410N (protein)
chain 1: B1 chain 1
chain 2: B1 chain 2 with Y138R, R158E
For B14, the “% of WT kcat/KM” value (Factor X, P00742) was 422%, the kcat (Factor X, P00742) was 4.8 s⁻¹ and the kcat/KM (Factor X, P00742) was 1.9e+08 M⁻¹ s⁻¹.

B15: FIXa variant D203N/F205T/R338E (protein)
chain 1: B1 chain 1
chain 2: B1 chain 2 with D23N, F25T, N67K, S69N, Y138R, R158E, E223R, N230E
In the case of B15, the “% of WT kcat/KM” value (Factor X (FX), P00742) is reported as 228% and the kcat/KM (Factor X (FX), P00742) is reported as 1e+08 M⁻¹ s⁻¹.

B16: FIXa variant D104N/K106S/R318Y/R338E/E410N (protein)
chain 1: B1 chain 1 with D104N, K106S
chain 2: B1 chain 2 with N67K, S69N, R158E, E223R
With B16 the “% of WT kcat/KM” value (Factor X (FX), P00742) was 564% and the kcat/KM (Factor X (FX), P00742) was 2.6e+08 M⁻¹ s⁻¹.

B17: FIXa variant D203N/F205T/R338E/R403E (protein)
chain 1: B1 chain 1
chain 2: B1 chain 2 with D23N, F25T, N67K, S69N, Y138R, R158E, N230E
B17 was tested, and the “% of WT kcat/KM” value (Factor X (FX), P00742) was 41% and the kcat/KM (Factor X (FX), P00742) was 1.9e+07 M⁻¹ s⁻¹.

B18: FIXa variant A103N/N105S/Y155F/R318Y/R338E/R403E/E410N (protein)
chain 1: B1 chain 1 with A103N, N105S
chain 2: B1 chain 2 with N67K, S69N, R158E
For B18, the “% of WT kcat/KM” value (Factor X (FX), P00742) was 274% and the kcat/KM (Factor X (FX), P00742) was 1.3e+08 M⁻¹ s⁻¹.

B19: FIXa variant R318Y/R338E/E410N (protein)
chain 1: B1 chain 1
chain 2: B1 chain 2 with N67K, S69N, R158E, E223R
B19 was tested, and the “% of WT kcat/KM” value (Factor X (FX), P00742) was 727% and the kcat/KM (Factor X (FX), P00742) was 3.4e+08 M⁻¹ s⁻¹.

B20: FIXa variant D203N/F205T/R338A (protein)
chain 1: B1 chain 1
chain 2: B1 chain 2 with D23N, F25T, N67K, S69N, Y138R, R158A, E223R, N230E
With B20 the “% of WT kcat/KM” value (Factor X (FX), P00742) was 135% and the kcat/KM (Factor X (FX), P00742) was 6.2e+07 M⁻¹ s⁻¹.

B21: FIXa variant D203N/F205T/R318Y/E410N (protein)
chain 1: B1 chain 1
chain 2: B1 chain 2 with D23N, F25T, N67K, S69N, E223R
In the case of B21, the “% of WT kcat/KM” value (Factor X (FX), P00742) is reported as 85% and the kcat/KM (Factor X (FX), P00742) is reported as 3.9e+07 M⁻¹ s⁻¹.

B22: FIXa-D104N/K106S/Y155F/K247N/N249S/R318Y/R338E/R403E/E410N (protein)
chain 1: B1 chain 1 with D104N, K106S
chain 2: B1 chain 2 with R158E
B22 was tested, and the “% of WT kcat/KM” value (Factor X (FX), P00742) was 292% and the kcat/KM (Factor X (FX), P00742) was 1.3e+08 M⁻¹ s⁻¹.

B23: FIXa variant D104N/K106S/Y155F/R318Y/R338E/R403E/E410N (protein)
chain 1: B1 chain 1 with D104N, K106S
chain 2: B1 chain 2 with N67K, S69N, R158E
In the case of B23, the “% of WT kcat/KM” value (Factor X (FX), P00742) is reported as 382% and the kcat/KM (Factor X (FX), P00742) is reported as 1.8e+08 M⁻¹ s⁻¹.

B24: FIXa-R318Y/R338E/T343R/R403E (protein)
chain 1: B1 chain 1
chain 2: B1 chain 2 with N67K, S69N, R158E, T163R, N230E
B24 was tested, and the “% of WT kcat/KM” value (Factor X, P00742) was 357%, the kcat (Factor X, P00742) was 6.7 s⁻¹ and the kcat/KM (Factor X, P00742) was 1.6e+08 M⁻¹ s⁻¹.

B25: FIXa variant Y155F/R318Y/R338E/R403E/E410N (protein)
chain 1: B1 chain 1
chain 2: B1 chain 2 with N67K, S69N, R158E
For B25, the “% of WT kcat/KM” value (Factor X (FX), P00742) was 406% and the kcat/KM (Factor X (FX), P00742) was 1.9e+08 M⁻¹ s⁻¹.

B26: FIXa variant D203N/F205T/K228N (protein)
chain 1: B1 chain 1
chain 2: B1 chain 2 with D23N, F25T, K48N, N67K, S69N, Y138R, E223R, N230E
B26 was tested, and the “% of WT kcat/KM” value (Factor X (FX), P00742) was 30% and the kcat/KM (Factor X (FX), P00742) was 1.4e+07 M⁻¹ s⁻¹.

B27: FIXa variant Y155F/R318Y/R338E/R403E (protein)
chain 1: B1 chain 1
chain 2: B1 chain 2 with N67K, S69N, R158E, N230E
In the case of B27, the “% of WT kcat/KM” value (Factor X (FX), P00742) is reported as 189% and the kcat/KM (Factor X (FX), P00742) is reported as 8.7e+07 M⁻¹ s⁻¹.

B28: FIXa-K247N/N249S/R318Y/R403E/E410N (protein)
chain 1: B1 chain 1
chain 2: B1 chain 2
B28 was tested, and the “% of WT kcat/KM” value (Factor X, P00742) was 58%, the kcat (Factor X, P00742) was 2.9 s⁻¹ and the kcat/KM (Factor X, P00742) was 2.7e+07 M⁻¹ s⁻¹.
